pKd: −log10 of the molar value.
Key:
Experiment in all cases: Kd (EC50 corrected by depletion factor)
ZNFX1 = ZNFX1 (UniProt Q9P2E3)
Outline: (§1)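 Free RNA oligos (0 nM to 30 μM) competed for 1 h at 4°C in HEK293-FT lysate (2.5 mg protein/well) before a 30 min, 4°C pulldown with the same oligos on NHS-Sepharose beads. Bound proteins were quantified by label-free LC-MS/MS and normalised to the control. Kd was found by multiplying EC50, from a four-parameter log-logistic fit, by a protein-dependent depletion factor.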

CWF19L1 = target: T1, CWF19L1 (UniProt Q69YN2)
T1 sequence: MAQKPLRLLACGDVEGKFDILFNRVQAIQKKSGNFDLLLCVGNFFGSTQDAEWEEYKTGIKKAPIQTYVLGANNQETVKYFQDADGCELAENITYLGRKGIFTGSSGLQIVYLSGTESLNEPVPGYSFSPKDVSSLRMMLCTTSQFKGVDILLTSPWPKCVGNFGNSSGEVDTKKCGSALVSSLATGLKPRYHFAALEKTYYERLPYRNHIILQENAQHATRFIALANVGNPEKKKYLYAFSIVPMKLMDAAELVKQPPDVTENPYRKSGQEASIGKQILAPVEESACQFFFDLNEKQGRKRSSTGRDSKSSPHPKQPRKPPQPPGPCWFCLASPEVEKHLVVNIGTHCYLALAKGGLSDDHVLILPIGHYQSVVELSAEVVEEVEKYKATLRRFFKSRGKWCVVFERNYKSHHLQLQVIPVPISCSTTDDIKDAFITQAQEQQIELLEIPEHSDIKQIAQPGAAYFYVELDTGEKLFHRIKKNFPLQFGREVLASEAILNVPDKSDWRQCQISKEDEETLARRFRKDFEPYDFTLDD
Outline: as §1

GRSF1 = target: T2, GRSF1 (UniProt Q12849)
T2 sequence: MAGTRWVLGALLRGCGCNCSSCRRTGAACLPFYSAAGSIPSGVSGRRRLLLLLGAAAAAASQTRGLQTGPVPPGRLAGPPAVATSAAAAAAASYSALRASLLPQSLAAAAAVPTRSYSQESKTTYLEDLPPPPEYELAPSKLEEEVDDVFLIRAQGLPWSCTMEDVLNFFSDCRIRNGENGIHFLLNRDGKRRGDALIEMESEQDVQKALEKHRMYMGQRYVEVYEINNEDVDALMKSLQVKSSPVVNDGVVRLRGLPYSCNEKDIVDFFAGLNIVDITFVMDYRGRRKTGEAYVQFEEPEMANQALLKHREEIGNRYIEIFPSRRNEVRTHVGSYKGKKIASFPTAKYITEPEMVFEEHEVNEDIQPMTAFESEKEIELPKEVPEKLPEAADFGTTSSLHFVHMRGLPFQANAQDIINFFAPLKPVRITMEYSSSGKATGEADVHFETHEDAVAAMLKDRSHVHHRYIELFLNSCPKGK
Outline: as §1

HNRNPA1 = HNRNPA1 (UniProt P09651)
Outline: as §1

FUBP1 = target: T3, FUBP1 (UniProt Q96AE4)
T3 sequence: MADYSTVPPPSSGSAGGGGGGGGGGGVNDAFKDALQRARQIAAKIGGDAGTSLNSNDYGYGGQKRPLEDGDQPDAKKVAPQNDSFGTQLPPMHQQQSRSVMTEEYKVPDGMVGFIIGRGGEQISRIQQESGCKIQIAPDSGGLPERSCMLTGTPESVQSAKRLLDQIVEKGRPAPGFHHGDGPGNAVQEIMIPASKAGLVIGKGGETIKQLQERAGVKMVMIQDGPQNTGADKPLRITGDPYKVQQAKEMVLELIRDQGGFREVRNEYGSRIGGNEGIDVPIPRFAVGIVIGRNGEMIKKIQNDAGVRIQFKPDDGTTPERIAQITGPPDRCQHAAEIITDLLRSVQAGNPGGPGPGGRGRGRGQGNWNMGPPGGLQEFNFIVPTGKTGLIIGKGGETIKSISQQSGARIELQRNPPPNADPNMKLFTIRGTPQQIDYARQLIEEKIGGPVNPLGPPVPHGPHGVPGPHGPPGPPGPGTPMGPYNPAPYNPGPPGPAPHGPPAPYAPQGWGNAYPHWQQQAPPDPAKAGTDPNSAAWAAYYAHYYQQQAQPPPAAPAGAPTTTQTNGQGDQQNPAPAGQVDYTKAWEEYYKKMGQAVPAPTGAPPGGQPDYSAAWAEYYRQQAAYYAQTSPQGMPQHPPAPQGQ
Outline: as §1

HNRNPR = target: T4, HNRNPR (UniProt O43390)
T4 sequence: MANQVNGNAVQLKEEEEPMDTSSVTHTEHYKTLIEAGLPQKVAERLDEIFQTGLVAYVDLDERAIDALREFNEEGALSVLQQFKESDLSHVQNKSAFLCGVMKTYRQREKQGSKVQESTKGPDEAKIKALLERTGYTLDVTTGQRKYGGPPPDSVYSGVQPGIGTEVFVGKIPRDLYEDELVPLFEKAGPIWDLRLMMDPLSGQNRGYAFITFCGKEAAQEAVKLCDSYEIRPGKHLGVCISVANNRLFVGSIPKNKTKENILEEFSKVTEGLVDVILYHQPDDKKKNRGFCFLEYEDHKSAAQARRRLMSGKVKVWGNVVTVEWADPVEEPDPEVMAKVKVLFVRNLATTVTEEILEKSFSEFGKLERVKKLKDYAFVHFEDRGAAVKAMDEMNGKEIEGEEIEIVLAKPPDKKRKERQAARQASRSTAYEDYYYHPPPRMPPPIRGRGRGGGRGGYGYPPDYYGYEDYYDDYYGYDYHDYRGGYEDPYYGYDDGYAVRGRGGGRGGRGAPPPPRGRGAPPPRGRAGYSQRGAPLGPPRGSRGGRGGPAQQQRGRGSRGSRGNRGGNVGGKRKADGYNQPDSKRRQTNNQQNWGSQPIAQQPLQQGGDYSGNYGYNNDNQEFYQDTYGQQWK
Outline: as §1

GPATCH11 = GPATCH11 (UniProt Q8N954)
Outline: as §1

HNRNPK = HNRNPK (UniProt P61978)
Outline: as §1

Sequence of HNRNPA1 (P09651 whole entry): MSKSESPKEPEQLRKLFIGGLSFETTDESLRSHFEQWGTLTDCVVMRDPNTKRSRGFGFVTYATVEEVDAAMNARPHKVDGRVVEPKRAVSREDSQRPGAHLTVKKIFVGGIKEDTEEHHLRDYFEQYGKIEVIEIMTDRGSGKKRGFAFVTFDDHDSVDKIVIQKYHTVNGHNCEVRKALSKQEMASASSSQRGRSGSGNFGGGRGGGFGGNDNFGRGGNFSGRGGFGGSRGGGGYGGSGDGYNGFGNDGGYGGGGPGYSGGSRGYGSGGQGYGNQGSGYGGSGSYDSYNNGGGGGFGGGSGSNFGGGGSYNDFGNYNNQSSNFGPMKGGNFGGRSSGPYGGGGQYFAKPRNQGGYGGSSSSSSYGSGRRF
Sequence of ZNFX1 (Q9P2E3 whole entry): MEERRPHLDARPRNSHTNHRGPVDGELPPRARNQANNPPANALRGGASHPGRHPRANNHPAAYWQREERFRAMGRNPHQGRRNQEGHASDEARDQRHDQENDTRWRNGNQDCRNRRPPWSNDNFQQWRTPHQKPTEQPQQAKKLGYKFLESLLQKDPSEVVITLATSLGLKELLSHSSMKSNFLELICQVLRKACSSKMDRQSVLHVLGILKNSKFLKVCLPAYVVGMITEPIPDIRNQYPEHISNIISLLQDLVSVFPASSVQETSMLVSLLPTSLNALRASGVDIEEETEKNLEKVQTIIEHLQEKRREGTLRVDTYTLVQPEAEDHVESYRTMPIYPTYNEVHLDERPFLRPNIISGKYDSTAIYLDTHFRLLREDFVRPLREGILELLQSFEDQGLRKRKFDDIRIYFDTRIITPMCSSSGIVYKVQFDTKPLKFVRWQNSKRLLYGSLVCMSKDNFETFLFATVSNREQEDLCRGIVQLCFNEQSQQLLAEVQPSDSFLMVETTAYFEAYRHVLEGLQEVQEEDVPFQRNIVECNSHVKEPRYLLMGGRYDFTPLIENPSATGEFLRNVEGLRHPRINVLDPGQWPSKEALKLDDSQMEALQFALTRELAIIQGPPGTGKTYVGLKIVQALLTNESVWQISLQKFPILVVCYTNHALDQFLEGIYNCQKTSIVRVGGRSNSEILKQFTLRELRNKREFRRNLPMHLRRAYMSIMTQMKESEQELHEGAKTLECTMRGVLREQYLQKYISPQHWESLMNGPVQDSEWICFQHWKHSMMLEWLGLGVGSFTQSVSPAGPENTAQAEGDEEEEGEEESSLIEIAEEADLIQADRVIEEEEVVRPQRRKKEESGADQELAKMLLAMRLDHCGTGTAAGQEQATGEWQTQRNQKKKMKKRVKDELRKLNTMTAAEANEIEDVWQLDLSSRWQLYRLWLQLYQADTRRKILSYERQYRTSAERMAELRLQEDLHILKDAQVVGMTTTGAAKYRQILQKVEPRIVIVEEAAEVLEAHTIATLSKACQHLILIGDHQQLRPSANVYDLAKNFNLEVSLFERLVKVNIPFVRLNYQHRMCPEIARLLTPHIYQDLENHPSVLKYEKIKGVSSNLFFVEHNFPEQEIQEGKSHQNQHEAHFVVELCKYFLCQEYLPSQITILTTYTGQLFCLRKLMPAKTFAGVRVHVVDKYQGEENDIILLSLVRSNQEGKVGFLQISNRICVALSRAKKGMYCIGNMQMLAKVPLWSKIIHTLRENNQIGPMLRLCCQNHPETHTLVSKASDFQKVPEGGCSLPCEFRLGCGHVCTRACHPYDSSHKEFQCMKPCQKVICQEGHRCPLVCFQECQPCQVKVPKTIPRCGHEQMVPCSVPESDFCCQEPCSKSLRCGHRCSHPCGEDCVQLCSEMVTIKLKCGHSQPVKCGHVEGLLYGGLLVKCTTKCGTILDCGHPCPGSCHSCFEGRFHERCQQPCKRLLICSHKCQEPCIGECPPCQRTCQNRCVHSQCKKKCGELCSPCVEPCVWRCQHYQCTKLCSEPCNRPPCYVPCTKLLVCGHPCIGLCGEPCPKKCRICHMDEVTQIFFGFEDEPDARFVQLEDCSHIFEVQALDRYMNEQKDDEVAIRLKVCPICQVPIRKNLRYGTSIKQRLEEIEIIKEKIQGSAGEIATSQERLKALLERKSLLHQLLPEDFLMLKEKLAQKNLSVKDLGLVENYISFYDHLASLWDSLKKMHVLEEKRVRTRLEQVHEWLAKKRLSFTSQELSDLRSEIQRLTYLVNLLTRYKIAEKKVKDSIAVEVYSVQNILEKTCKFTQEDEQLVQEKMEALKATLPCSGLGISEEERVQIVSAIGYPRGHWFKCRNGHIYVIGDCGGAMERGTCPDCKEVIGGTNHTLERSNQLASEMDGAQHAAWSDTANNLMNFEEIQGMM
Sequence of GPATCH11 (Q8N954 whole entry): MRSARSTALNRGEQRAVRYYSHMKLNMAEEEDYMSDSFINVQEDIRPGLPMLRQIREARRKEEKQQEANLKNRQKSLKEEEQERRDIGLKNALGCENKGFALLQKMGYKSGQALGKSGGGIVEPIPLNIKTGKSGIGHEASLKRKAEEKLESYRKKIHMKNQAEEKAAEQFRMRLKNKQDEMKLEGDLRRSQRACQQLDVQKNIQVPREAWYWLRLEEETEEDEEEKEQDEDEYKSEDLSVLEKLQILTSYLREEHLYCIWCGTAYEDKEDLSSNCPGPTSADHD

UAUUUAU
pKd (ZNFX1): 6.43 | pKd (CWF19L1): 5.71 | pKd (GRSF1): 5.47 | pKd (HNRNPA1): 5.71

AAUAAA
pKd (FUBP1): 6.17 | pKd (HNRNPR): 6.17 | pKd (GPATCH11): 7.49

CUGUCCU
pKd (HNRNPK): 5.79
